Data from the Immune Epitope Database (IEDB).
pKd: −log10 of the molar value. Values belong to the sequence of their own block, whether it stands above or below them.

Columns and labels:
HLA-A*24:03 = experiment: IEDB peptide-MHC binding, purified MHC/direct/fluorescence; filed as Kd, often an IC50 or EC50 that approximates it; ≥ and ≤ were set here for values at or beyond the usual limits of such assays; details: source organism: Vibrio parahaemolyticus
HLA-A*32:01 = experiment: IEDB peptide-MHC binding, purified MHC/competitive/radioactivity; filed as Kd, often an IC50 or EC50 that approximates it; ≥ and ≤ were set here for values at or beyond the usual limits of such assays
HLA-B*44:02 = experiment: as above; details: source organism: Dengue virus 1 Singapore/S275/1990
HLA-A*30:01 = experiment: as above
HLA-A*11:01 = experiment: as above; details: source organism: Dengue virus 3 Martinique/1243/1999
HLA-A*26:01 = experiment: as above
HLA-B*08:01 = experiment: as above
HLA-B*51:01 = experiment: IEDB peptide-MHC binding, purified MHC/competitive/fluorescence; filed as Kd, often an IC50 or EC50 that approximates it; ≥ and ≤ were set here for values at or beyond the usual limits of such assays
HLA-A*68:02 = experiment: IEDB peptide-MHC binding, purified MHC/competitive/radioactivity; filed as Kd, often an IC50 or EC50 that approximates it; ≥ and ≤ were set here for values at or beyond the usual limits of such assays
HLA-A*68:01 = experiment: as above; details: source organism: Dengue virus 1 Brazil/97-11/1997
HLA-B*35:01 = experiment: as above; details: source organism: Dengue virus 1 Brazil/97-11/1997
HLA-A*02:02 = experiment: as above; details: source organism: Mammarenavirus juninense
HLA-A*02:03 = experiment: as above
HLA-A*02:06 = experiment: as above
HLA-A*01:01 = experiment: IEDB peptide-MHC binding, purified MHC/direct/fluorescence; filed as Kd, often an IC50 or EC50 that approximates it; ≥ and ≤ were set here for values at or beyond the usual limits of such assays; details: source organism: Influenza A virus (A/swine/Hong Kong/273/1994(H1N1))
HLA-A*02:12 = experiment: as above; details: source organism: Influenza C virus
HLA-A*03:01 [1] = experiment: as above; details: source organism: Influenza A virus (A/swine/Hong Kong/273/1994(H1N1))
HLA-B*07:02 = experiment: as above; details: source organism: Influenza A virus (A/swine/Hong Kong/273/1994(H1N1))
HLA-B*15:01 [2] = experiment: as above; details: source organism: Influenza A virus (A/swine/Hong Kong/273/1994(H1N1))
HLA-B*27:05 = experiment: as above; details: source organism: Influenza A virus (A/swine/Hong Kong/273/1994(H1N1))
HLA-B*58:01 = experiment: as above; details: source organism: Influenza A virus (A/swine/Hong Kong/273/1994(H1N1))
HLA-B*15:01 [3] = experiment: IEDB peptide-MHC binding, purified MHC/competitive/radioactivity; filed as Kd, often an IC50 or EC50 that approximates it; ≥ and ≤ were set here for values at or beyond the usual limits of such assays
HLA-A*03:01 [4] = experiment: as above; details: source organism: Dengue virus 4 Philippines/H241/1956
HLA-A*02:01 = experiment: IEDB peptide-MHC binding, purified MHC/competitive/fluorescence; filed as Kd, often an IC50 or EC50 that approximates it; ≥ and ≤ were set here for values at or beyond the usual limits of such assays; details: source organism: Variola virus
[5] = source organism: Dengue virus 1 Brazil/97-11/1997
[6] = source organism: Dengue virus 2 Jamaica/1409/1983
[7] = source organism: Dengue virus 3 Martinique/1243/1999
[8] = source organism: Dengue virus 2 16681-PDK53
[9] = source organism: Vaccinia virus WR
[10] = source organism: Mammarenavirus juninense
[11] = source organism: Dengue virus 4 Philippines/H241/1956

Sequence: AFYLWIVGF
pKd (HLA-A*24:03): 5.68

Sequence: AGILARWGSF
pKd (HLA-A*32:01; source organism: Dengue virus 1 Singapore/S275/1990): 5.94
pKd (HLA-B*44:02): 4.90

Sequence: AIFMTATPPG
pKd (HLA-A*30:01; [5]): 6.75

Sequence: ATMANEMGF
pKd (HLA-A*32:01; [6]): 6.86

Sequence: ATQLATLRK
pKd (HLA-A*11:01): 7.17
pKd (HLA-A*30:01; [7]): 8.24

Sequence: CTILAVVSVS
pKd (HLA-A*26:01; [8]): ≤ 4.16
pKd (HLA-A*30:01; [8]): 5.01

Sequence: DIMALIVSI
pKd (HLA-A*32:01; source organism: Vaccinia virus): 6.94

Sequence: DLRRRFDTF
pKd (HLA-B*08:01; [9]): 8.80

Sequence: ENRLHKECL
pKd (HLA-B*08:01; [9]): 7.14

Sequence: EPNFSIPQI
pKd (HLA-B*51:01; source organism: Mycobacterium tuberculosis variant bovis BCG str. Pasteur 1173P2): 6.57

Sequence: ETACLGKAYA
pKd (HLA-A*26:01; [7]): 6.68
pKd (HLA-A*68:02; [7]): 8.44

Sequence: FALLKFTYL
pKd (HLA-B*08:01; [9]): 8.80

Sequence: FNKDIFVSL
pKd (HLA-B*08:01; [9]): 6.56

Sequence: FTNMEVQLIR
pKd (HLA-A*68:01): 7.06
pKd (HLA-B*35:01): 4.84

Sequence: GGALVRNPLS
pKd (HLA-A*30:01; [6]): 5.28

Sequence: GLSQFTQTV
pKd (HLA-A*02:02): 8.41
pKd (HLA-A*02:03; [10]): 9.16
pKd (HLA-A*02:06; [10]): 6.14
pKd (HLA-A*68:02; [10]): ≤ 4.59

Sequence: GMFNMLSTV
pKd (HLA-A*01:01): ≤ 4.70
pKd (HLA-A*02:12): 7.31
pKd (HLA-A*03:01 [1]): ≤ 4.70
pKd (HLA-B*07:02): ≤ 4.70
pKd (HLA-B*15:01 [2]): 6.98
pKd (HLA-B*27:05): 5.00
pKd (HLA-B*58:01): ≤ 4.70

Sequence: GMNSRSTSL
pKd (HLA-A*02:03; [6]): 7.74
pKd (HLA-B*08:01; [6]): 8.11
pKd (HLA-B*15:01 [3]; [6]): 7.06

Sequence: HASPTLFNA
pKd (HLA-A*30:01; [9]): 7.18

Sequence: HLIFSYAFL
pKd (HLA-A*30:01; [9]): 6.67

Sequence: HMILVVVTTL
pKd (HLA-B*08:01; [11]): 5.29
pKd (HLA-B*15:01 [3]; [11]): 6.39

Sequence: IFKLTYQNK
pKd (HLA-A*30:01; [6]): 6.47

Sequence: IGILLTWLGL
pKd (HLA-A*32:01; [5]): ≤ 4.41

Sequence: ILCYFILIF
pKd (HLA-A*32:01; [9]): 4.94

pKd (HLA-A*02:06; source organism: Homo sapiens): ≤ 4.14
pKd (HLA-A*68:02; source organism: Homo sapiens): 5.65
Sequence: ILKNSQGEEV

Sequence: ILKRWGQLK
pKd (HLA-A*03:01 [4]): 8.45
pKd (HLA-A*30:01; [11]): 6.50

Sequence: IMGQLTWNDL
pKd (HLA-B*08:01; [5]): 5.19

Sequence: IPNDFKELV
pKd (HLA-B*51:01; source organism: Rickettsia typhi str. Wilmington): 6.35

Sequence: KAERVIDPRR
pKd (HLA-A*30:01; [6]): 4.94

Sequence: KARDALDNL
pKd (HLA-A*30:01; [6]): 7.15

Sequence: KARNALDNL
pKd (HLA-A*30:01; [8]): 7.71

Sequence: KIDFLFFII
pKd (HLA-A*32:01; source organism: Vaccinia virus Copenhagen): 8.71

Sequence: KSAHFLLIF
pKd (HLA-A*32:01; [9]): 9.73

Sequence: KTMMINPFM
pKd (HLA-A*30:01; [9]): 9.44

Sequence: KVIVRNLNK
pKd (HLA-A*30:01; [9]): 8.84

Sequence: KVKNVHIGG
pKd (HLA-A*30:01; [9]): 9.47

Sequence: LALDSYWPV
pKd (HLA-B*51:01; source organism: Yersinia pestis Nepal516): 6.15

Sequence: LDILTEIASL
pKd (HLA-B*08:01; [11]): 6.06

Sequence: LIDNPDNNL
pKd (HLA-A*02:01): 7.11

Sequence: LLITHYAII
pKd (HLA-A*02:03; [7]): 7.74
pKd (HLA-B*08:01; [7]): 6.43

pKd (HLA-A*02:03; source organism: Homo sapiens): 7.08
pKd (HLA-A*68:02; source organism: Homo sapiens): 6.00
Sequence: LLNVKMALDI
